Laboratory results as given in publication PMC9127587, “Antibody recognition of complement factor H reveals a flexible loop involved in atypical hemolytic uremic syndrome pathogenesis” (The Journal of Biological Chemistry, 2022).
Where a chain is given by its changes, count along the chain named. Names may count otherwise.

B1: VHH4 (VHH)
VHH: QVQLVESGGGLVQAGGSLRLSCAASGLTVDDYAIGWFRQAPGKEREGVSCISSSNGSTYYADSVKGRFTISSDNAKNTAYLQMNSLKPEDTAVYYCAAAVSPNLECGTGPFGIYASYYGMDYWGQGTQVTVSS
notes: alpaca VHH selected by phage display; CDR3 is Ala99-Tyr122; Disulfide bond between Cys50 and Cys106; also called VHH4 WT; WT; source: E. coli BL21 (DE3), purified (Ni-NTA, SEC)
B2: VHH4 P102A (VHH)
VHH: B1 VHH with P102A
B3: VHH4 G119A (VHH)
VHH: B1 VHH with G119A
B4: VHH4 D121A (VHH)
VHH: B1 VHH with D121A
notes: as the VHH chain of m4 (PDB 7WKI) with the stated change; also called D121A_(VHH4); Asp121A_(VHH4); source: E. coli BL21 (DE3), purified (Ni-NTA, SEC), as the wildtype
B5: VHH4 Y95A (VHH)
VHH: B1 VHH with Y95A
B6: VHH4 W123A (VHH)
VHH: B1 VHH with W123A
B7: VHH4 P110A (VHH)
VHH: B1 VHH with P110A
B8: VHH4 T108A (VHH)
VHH: B1 VHH with T108A
B9: VHH4 Y118A (VHH)
VHH: B1 VHH with Y118A
notes: as the VHH chain of m4 (PDB 7WKI) with the stated change; also called Y118A_(VHH4); Tyr118A_(VHH4); source: E. coli BL21 (DE3), purified (Ni-NTA, SEC), as the wildtype
B10: VHH4 L104A (VHH)
VHH: B1 VHH with L104A
notes: as the VHH chain of m4 (PDB 7WKI) with the stated change; also called L104A_(VHH4); Leu104A_(VHH4); source: E. coli BL21 (DE3), purified (Ni-NTA, SEC), as the wildtype
B11: VHH4 Y117A (VHH)
VHH: B1 VHH with Y117A

Legend:
[1] = target: T1, CFH18-20 (human complement factor H CCP18-20) with His-tag only (Homo sapiens, UniProt P08603); test: crystal structure; complex of CFH18-20 with His-tag and VHH4 mixed at 1:1.2 and purified by SEC; crystals at 20 °C in 200 mM sodium phosphate monobasic, 20% PEG 3350; 2.6 Å; conditions: both partners purified
T1 construct: complement factor H (CFH), human, domains CCP18-20; Construct for crystallization; Domain CCP18 was not observed in the crystal structure; also called CFH18-20 with His-tag; source: Expi293 cells, transfected, purified from the supernatant (Ni-NTA, SEC); not shown: His-tag, C-terminal, kept

[2] = target: CFH18-20 (human complement factor H CCP18-20) with myc tag and His-tag (human) (UniProt P08603); test: ITC; CFH18-20 in the cell (5-15 uM), VHH4 or mutants in the syringe (50-150 uM), 20 injections; PBS pH 7.4, 25 °C; iTC200
[3] = target: CFH18-20 (human complement factor H CCP18-20) with myc tag and His-tag (human) (UniProt P08603); test: SPR; CFH18-20 (or W1183A) immobilised on a CM5 chip by amine coupling at around 300 RU; VHH4 or its mutants injected as analyte at 30 uL/min; single-cycle kinetics; PBS pH 7.4, Tween 20 (0.005%), 25 °C; Biacore 8K
[4] = target: CFH18-20 W1183A_(CCP20) (human) (UniProt P08603); test: as above
[5] = target: T2, CFH18-20 (human complement factor H CCP18-20) with myc tag and His-tag (Homo sapiens, UniProt P08603); test: ITC; CFH18-20 in the cell (5-15 uM), VHH4 or mutants in the syringe (50-150 uM), 20 injections; PBS pH 7.4, 25 °C; iTC200; conditions: both partners purified
T2 construct: complement factor H (CFH), human, domains CCP18-20; Construct for SPR and ITC; PDB 7WKI holds the His-only form of the same protein; also called CFH18-20 WT; CFH CCP18-20; source: Expi293 cells, transfected, purified from the supernatant (Ni-NTA, SEC); not shown: myc, C-terminal, kept; His-tag, C-terminal, kept

[6] = target: T2, CFH18-20 (human complement factor H …); test: SPR; CFH18-20 (or W1183A) immobilised on a CM5 chip by amine coupling at around 300 RU; VHH4 or its mutants injected as analyte at 30 uL/min; single-cycle kinetics; PBS pH 7.4, Tween 20 (0.005%), 25 °C; Biacore 8K; conditions: both partners purified

T2 sequence (P08603 1046-1231): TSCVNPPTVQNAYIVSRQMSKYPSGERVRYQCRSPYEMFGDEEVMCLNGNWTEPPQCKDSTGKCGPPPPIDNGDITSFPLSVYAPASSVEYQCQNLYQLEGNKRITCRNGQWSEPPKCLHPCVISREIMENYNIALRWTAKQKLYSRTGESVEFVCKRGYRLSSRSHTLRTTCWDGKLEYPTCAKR
Sequence of CFH18-20 (human complement factor H CCP18-20) with myc tag and His-tag (human) (P08603 1046-1231): as above
T1 sequence (P08603 1046-1231): as above
Sequence of CFH18-20 W1183A_(CCP20) (human) (P08603 1046-1231 W1183A): as the sequence (P08603 1046-1231) above, with W138A counted along it

Binder	binding result [1]	Kd [2] [nM]	dH [2] [kcal/mol]	stoichiometry N [2]	Kd [3] [nM]	koff [3] [s⁻¹]	kon [3] [M⁻¹ s⁻¹]	Kd [4] [nM]	Kd [5] [nM]	dH [5] [kcal/mol]	stoichiometry N [5]	Kd [6] [nM]	koff [6] [s⁻¹]	kon [6] [M⁻¹ s⁻¹]
B1	binds	2.01	-28.9	0.895	0.00171	5.53e-08	31400	> 1000						
B2		4.11	-29.6	0.961	0.219	4.07e-06	23700							
B3		7.26	-19.4	0.865	9.18	0.000611	62800							
B4									361 ± 64.9	-29.5 ± 1.14	1 ± 0.019	127 ± 30	0.000545	4340
B5		2.27	-28.2	0.842	0.166	4.42e-06	30400							
B6		3.92	-20.9	0.866	5.05	0.000159	31200							
B7		5.03	-29.8	0.838	0.504	7.11e-06	9210							
B8		8.79	-27.2	0.924	0.146	2.57e-06	17900							
B9									410 ± 26.4	-19.4 ± 0.33	0.947 ± 0.041	2200 ± 732	0.0298	15800
B10									166 ± 40.3	-24.5 ± 0.99	0.947 ± 0.061	44.1 ± 2.3	0.000489	11200
B11		5.87	-28.1	0.933	0.498	5.39e-07	11300							
